Values of other authors in paper PMC4664810.
Like-named read-outs stand apart in the source and are kept apart here.

Tests used:
CD20 (Homo sapiens) [1] = molecular target: CD20 (Homo sapiens) (UniProt P11836)
CD20 (Homo sapiens) [2] = molecular target: CD20 (Homo sapiens) (UniProt P11836); remark: listed apart in the source

Chain of CD20 (Homo sapiens) (P11836 whole entry): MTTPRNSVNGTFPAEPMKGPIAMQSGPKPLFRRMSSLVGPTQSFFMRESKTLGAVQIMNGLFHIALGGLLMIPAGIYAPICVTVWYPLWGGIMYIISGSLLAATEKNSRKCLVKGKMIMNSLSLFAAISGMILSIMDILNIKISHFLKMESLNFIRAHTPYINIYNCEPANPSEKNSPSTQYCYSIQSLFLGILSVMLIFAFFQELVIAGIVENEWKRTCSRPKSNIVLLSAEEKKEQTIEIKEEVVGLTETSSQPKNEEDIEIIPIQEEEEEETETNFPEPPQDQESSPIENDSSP

Substance | Kd (CD20 (Homo sapiens) [1]) | Kd (CD20 (Homo sapiens) [2])
rituximab | 5.45 nM | 
ofatumumab |  | 4.76 nM
